# Experimental data reported in patent US20240003881A1.
# Columns and labels:
# [1] = biological target: β10-S (SARS-CoV-2) (UniProt P0DTC2); assay: tNLuc split-luciferase assay in solution with β9-G; CR3022 dose response, allosteric sigmoidal fit
# [2] = biological target: β10-S-β10 (SARS-CoV-2) (UniProt P0DTC2); assay: as above
# [3] = biological target: β10-S-β10 (SARS-CoV-2) (UniProt P0DTC2); assay: tNLuc assay (β9-G/β10-S-β10); CR3022 dose response with 0-100 µg/mL human IgG, allosteric noncompetitive inhibition model
substance,measurement,setting,value
CR3022 (antibody),Kd,[1],0.42 µg/mL
same,Kd,[2],0.23 µg/mL
same,Kd,[3],0.22 µg/mL
